{"source": "patent US20250282872A1", "about": "(ANAPTYSBIO, published 2025)", "molecules": {"B1": {"name": "Proteinase 3 (PR3), purified recombinant (protein)", "chain": "IVGGHEAQPHSRPYMASLQMRGNPGSHFCGGTLIHPSFVLTAAHCLRDIPQRLVNVVLGAHNVRTQEPTQQHFSVAQVFLNNYDAENKLNDVLLIQLSSPANLSASVATVQLPQQDQPVPHGTQCLAMGWGRVGAHDPPAQVLQELNVTVVTFFCRPHNICTFVPRRKAGICFGDSGGPLICDGIIQGIDSFVIWGCATRLFPDFFTRVALYVDWIRSTLR"}, "B2": {"name": "6G3 IgG4 anti-BTLA antibody (antibody, V domains shown)", "VH": "QVQLVQSGAEVKKPGSSVKVSCKASGYVFSTSWMNWVRQAPGQGLEWMGRIYPGDADTNYVGKFKGRVTITADKSTTTAYMELSSLRSEDTAVYFCAKSGTFNFGNYRWYFDVWGKGTTVTVSS", "VL": "AIQLTQSPSSLSASVGDRVTITCRVSENIYSHLAWYQQKPGKAPKLLIYAATNLALGVPSRFSGSGSGTDYTLTISSLQPEDFATYYCQLFWGPPLTFGGGTKVEIKR", "notes": "Humanized, IgG4; also called APE10840; APE10840.03"}}, "key": {"[1]": {"target": "cynomolgus monkey BTLA on cells (cynomolgus monkey)", "assay": "flow cytometry dot plot, cynomolgus monkey lysed whole blood, CD3 (PerCP Cy5.5) against BTLA (APC), 33 nM antibody"}, "[2]": {"target": "T1, BTLA-ECD, purified recombinant (Example 19)", "T1 sequence (Q7Z6A9 31-157, species assumed, looked up)": "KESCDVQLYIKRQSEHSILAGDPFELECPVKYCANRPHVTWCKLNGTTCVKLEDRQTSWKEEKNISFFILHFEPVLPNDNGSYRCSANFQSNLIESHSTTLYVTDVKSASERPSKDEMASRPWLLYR"}, "[3]": {"target": "β-galactosidase enzyme donor (ED)-tagged human BTLA on Jurkat cells (human, UniProt Q7Z6A9 31-289)", "assay": "cell-based or functional assay"}, "[4]": {"target": "T2, cynomolgus monkey BTLA on cells (cynomolgus monkey, UniProt A0A2K5W7M7 31-289)", "T2 construct": "whole, on cells; also called 293c18 clone 1G5; BTLA on cynomolgus monkey peripheral blood T and B cells", "T2 sequence": "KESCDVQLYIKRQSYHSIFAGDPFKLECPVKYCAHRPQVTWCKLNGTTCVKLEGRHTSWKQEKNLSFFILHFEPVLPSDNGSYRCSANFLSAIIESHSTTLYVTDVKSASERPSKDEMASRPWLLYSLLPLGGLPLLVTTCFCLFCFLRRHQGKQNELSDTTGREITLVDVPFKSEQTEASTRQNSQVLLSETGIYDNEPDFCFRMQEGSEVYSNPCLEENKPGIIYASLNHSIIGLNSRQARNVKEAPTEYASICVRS", "assay": "flow cytometry on cynomolgus monkey whole blood, staining of CD20+ B cells against CD3+ T cells", "method": "Blood was then aliquoted into wells and incubated with the indicated concentrations of 6G3-AF647 (APE13766.02), or APC-Mouse Anti-Human CD272 (BTLA) reference antibody (clone J168-540; BD Biosciences) for 30 minutes at room temperature, in the dark. Following incubation, red blood cells were lysed for 10 minutes by addition of 2.0 ml diluted BD Pharm Lyse lysing solution (BD Biosciences), samples centrifuged at 200×g for 5 minutes, washed in FACS Buffer [Dulbecco's PBS, no calcium, no magnesium (Gibco/ThermoFisher Scientific), 25 mM HEPES, pH 7.2, 0.1% BSA, 0.1% sodium azide] and fixed in 4% paraformaldehyde (200 μl/sample) for 10 minutes at room temperature. Samples were washed twice in FACS Buffer and analyzed for fluorescence on a NovoCyte Quanteon flow cytometer (ACEA Biosciences, Inc.). Data were analyzed using NovoExpress Software (ACEA Biosciences, Inc.). Mean fluorescence intensity (MFI) values were graphed and fit with nonlinear regression analyses in GraphPad Prism (GraphPad Software, Inc.). MFI values for each anti-BTLA antibody on total CD3⁺ cells are shown in FIG. 5A; MFI values for each anti-BTLA antibody on total […] are shown in FIG. 5B. […] Binding of each anti-BTLA antibody to CD3⁻ cells in FIG. 5C and FIG. 5D (green cells in the bottom quadrants of each panel) reflects the binding to CD20+ B cells. […]"}}}
{"molecule": "APC-Mouse Anti-Human CD272 (BTLA) reference antibody clone J168-540 (BD Biosciences)", "values": [{"measurement": "% of cells in quadrant Q8-2 (CD3+, BTLA stain positive)", "setting": "[1]", "result": 35.8, "unit": "%"}, {"measurement": "% of cells in quadrant Q8-4 (CD3-, BTLA stain positive)", "setting": "[1]", "result": 28, "unit": "%"}, {"measurement": "Total BTLA (% of cells stained)", "setting": "[1]", "result": 63.9, "unit": "%"}]}
{"molecule": "B1", "values": [{"measurement": "proteolytic cleavage after co-incubation for up to 60 minutes (gel lanes)", "setting": "[2]", "result": "soluble BLTA-ECD was cleaved into multiple smaller fragments"}]}
{"molecule": "B2", "values": [{"measurement": "SHP2 recruitment PathHunter Jurkat BTLA signaling assay with U-2 OS hFcγRIa cells, EC50", "setting": "[3]", "result": 0.0093, "unit": "µg/mL"}, {"measurement": "SHP2 recruitment PathHunter Jurkat BTLA signaling assay, soluble antibody, EC50", "setting": "[3]", "result": 0.125, "unit": "µg/mL"}, {"measurement": "fold change of agonist potency with against without cell-associated FcγRIa", "setting": "[3]", "result": "~13", "unit": "fold"}, {"measurement": "MFI on B cells relative to MFI on T cells", "setting": "[4]", "result": "~9", "unit": "fold"}]}
